Measured values as given in the supplement of paper PMC9170038.

System: MS2 coat protein
Assay: apparent KD of MS2 coat protein; designed switch direction (-1 OFF switch, 1 ON switch): -1; higher = weaker reporter binding
In short: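 An oligonucleotide input, 200 uM small-molecule ligand, or no input was present during titration of SNAP-549-labelled MS2 coat protein, which was doubled from 0.7 or 1.5 nM to 3 µM. Designed RNA switches had been transcribed on Illumina chips by stalled E. coli RNA polymerase. Apparent KD per design is the median over clusters of curves fitted to normalised cluster fluorescence.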

[1] = Eterna round: R95, input ligand: FMN 200 uM
[2] = Eterna round: R95, input ligand: microRNA oligo, concentration not stated
[3] = Eterna round: R95, input ligand: none
[4] = input ligand: microRNA oligo, concentration not stated

| Sequence | apparent KD of MS2 coat protein [1] [nM] | apparent KD of MS2 coat protein [2] [nM] | apparent KD of MS2 coat protein [3] [nM] | apparent KD of MS2 coat protein (input ligand: FMN 200 uM) [nM] | apparent KD of MS2 coat protein (input ligand: none) [nM] | apparent KD of MS2 coat protein [4] [nM] |
| --- | --- | --- | --- | --- | --- | --- |
| GGUUGGCGAGGAUAUACAUGAGGAUCACCCAUGUGAGAGAAUAAAGUGAGGAAGAAAAGUAGAAGGCGCUGACA [Mat - Exclusion 3 - Mod of Salish D8] (puzzle: Exclusion 3) | 154 | 42.1 | 40.7 | – | – | – |
| GGCAAUAUGUAGGAUAUCGUAUUGGAAACAAUACGAGAAGGGCAAACAUGAGGAUCACCCAUGUUCCUUAAGCC [Mat - Exclusion 6 - Eli Mod - D68] (puzzle: Exclusion 6) | 18.6 | 17.6 | 16.6 | – | – | – |
| AUUUACGGAGGAUAUACUUGAGGAUCACCCAAGUGGAGUCCCGUUUGGGCGGUAAAUAGUAGAAGGCCGUCCUA [jl-ex3-4.46 ViennaUCT mod] (Eterna round: R97, puzzle: Exclusion 3) | – | – | – | 27.7 | 16.2 | – |
| AGAUGCUCAAGUCGACAUGAGGAUCACCCAUGUACAGUUAAUGAGGAUAUCCGAGAUAAAUAAUAGGAGAAGGCAUGAUCAUGA [Ex NG3 #4] (Eterna round: R96, puzzle: Exclusion NG 3) | – | – | – | 103 | 102 | 47.3 |
| CCUUUGUCAGGAUAUCAGAAAACGCCCGUAGGGAGCGCAAAUGAGAAGGGACAUGAGGAUCACCCAUGUAAAGA [Edvereri] (puzzle: Exclusion 4) | 204 | 50.1 | 53 | – | – | – |
| UGAUCACAUGAGGAUCACCCAUGUCAGGAUAUCUACAUUGAAGCCUCGGCUUCAAUGUAGAGAAGGGACAUAAU [E1/3-B2] (Eterna round: R97, puzzle: Exclusion 1) | – | – | – | 33.2 | 71.1 | – |
| GAAAACGCAGAGGAUAUUUCAGAUCAAAGCUGCAAAGAAGGCUGCACAUGAGGAUCACCCAUGUGGUCUCAAAA [Mod of Quesina 3 - Jieux - Exclusion 6] (Eterna round: R97, puzzle: Exclusion 6) | – | – | – | 422 | 33.6 | – |
| GCGCACCUACCAAAAGGUAGGUCCACAUGAGGAUCACCCAUGUAGGAUAUCGAUUGCUUUGCAGUCGAGAAGGACAUGAUGCGC [JL ENG3 3.80 Mod 10] (Eterna round: R96, puzzle: Exclusion NG 3) | – | – | – | 52.3 | 21.3 | 18.1 |
| AGAGAGUCAGGAUAUCGGAGGGAGAGGAGAGGAGAGAGGGACGAGAAGGGACAUGAGGAUCACCCAUGUAGGUG [JR_Exclusion4)Sub017] (puzzle: Exclusion 4) | 263 | 437 | 663 | – | – | – |
| AGCUGUGGCCGAGGAUAUCUAAAUUCUCAAAACGAAAUAUAAUCGAACAUGAGGAUCACCCAUGUAGAGAAGGCGGUCUCAGCA [Eli eng2 - 032] (Eterna round: R96, puzzle: Exclusion NG 2) | – | – | – | – | – | 34.6 |
| CCGCAAAUGGAGGAUAUCGUAUCGGAUACGAUACGAGAAGGCCAAACAUGAGGAUCACCCAUGUGUCCUAGCGG [Fiskers Ex 6 - 37] (puzzle: Exclusion 6) | 30 | 14.2 | 18.6 | – | – | – |
| GCUCGCGGGCAAGGAUAUCCUACGCUGUUCUGGCUCGUGUCUGUUACAUGAGGAUCACCCAUGUGGGAGAAGGUGCACCAGGGC [Design 47] (Eterna round: R96, puzzle: Exclusion NG 2) | – | – | – | 24.9 | 22.6 | 17.4 |
| AGCCCUGCAGGAUAUGUCGAGGAUAACAUGAGGAUCACCCAUGUGACCGAUUGUUAGACUGCAGAAGGGCAUGGGA [salish99_ex5_r4_304] (Eterna round: R97, puzzle: Exclusion 5) | – | – | – | 278 | 70.6 | – |
| AGCUGAGCAGGAUAUACAUGAGGAUCACCCAUGUAUUCUCGAAGGCGCCGCAUAGCAUGUAGAAGGGUUUAGAU [Eternabot (L1) Solution 20] (Eterna round: R97, puzzle: Exclusion 3) | – | – | – | 17 | 23.2 | – |
| GCACUGGCAGGAUAUACAUGAGGAUCACCCAUGUGAUCCCUUAGGUACAAAAGUACAAGUAGAAGGGCCUGUGC [Omei Ex3 Model Bachelor's Dilema v44] (Eterna round: R97, puzzle: Exclusion 3) | – | – | – | 52.2 | 845 | – |
| AUUAUGUUAGGAUAUGCUUAUGGUGGAUAGUCCAAUGUGGUGCAGAAGGGACAUGAGGAUCACCCAUGUACUGA [EX4 #29] (Eterna round: R97, puzzle: Exclusion 4) | – | – | – | 70.5 | 58.6 | – |
| UUAGCGCGAGGAUAUGCGGUUUGUGCUUUGGGCCCUGGCGUACAUGAGGAUCACCCAUGUAGAAGGCGUGUUGU [Apr-15 SS2-50] (puzzle: Exclusion 2) | – | 20.7 | – | – | – | – |
| AAGGAUAGAGGAUAUAUAUAGAUACAGAUUCAUGUAGAACUACAUGAGGAUCACCCAUGUAGAAGGCUAUCCUA [Fiskers Ex 2 - 10] (puzzle: Exclusion 2) | – | 14.7 | – | – | – | – |
| AGUAUGUUAGGAUAUUCCAUUGCUGUCAGCUCGGCGUCACAGAAGAAGGGACAUGAGGAUCACCCAUGUUAGGC [Eternabot (L1) Solution 96] (Eterna round: R97, puzzle: Exclusion 4) | – | – | – | 57.3 | 71.4 | – |
| CCACGACAUGAGGAUCACCCAUGUGAGGAUAUGGCCUGAAAAGCGUGAGCAGUAUCAAUCAGAAGGCGCGUGGG [salish99_ex1_r4_061] (Eterna round: R97, puzzle: Exclusion 1) | – | – | – | 116 | 76.4 | – |
| GCCGUAAAUGUGAGGAUAUACCUAUGGAAACAUAGGUAGAAGGCACAUGAGGAUCACCCAUGUUCUCAAUCGGC [Mat - Exclusion 4 - Eli Mod - D6] (Eterna round: R97, puzzle: Brourd's mod of Exclusion 4) | – | – | – | 775 | 195 | – |
| UUGUUAUGUGUAGGAUAUGCAUAUUAUUAUUAUGCAGAAGGACAUGAGGAUCACCCAUGUAUAUUAUUAUUAUAUAUUAUAUAU [Title] (Eterna round: R96, puzzle: Exclusion NG 1) | – | – | – | – | – | 21.9 |
| GGGCAAUUAGGAUAUACAUGAGGAUCACCCAUGUGGAAGCCCGGACAGGUAAUCCACUGUAGAAGGGAUUGCGG [Userqube] (puzzle: Exclusion 3) | – | 13.5 | – | – | – | – |
| CUGAACCCGGUAGGAUAUAUUGUGGGCAAGCAUGGAACAACAUGAGGAUCACCCAUGUAAUUUAGGUAGAAGGGCCAAAAGAUU [Excl-NG2-LRO08] (Eterna round: R96, puzzle: Exclusion NG 2) | – | – | – | 56.8 | 55.3 | 52.7 |
| GGUCAGAUGGUAGGAUAUUCAUAUCGAGUGACCCUUUCAUAACAUGAGGAUCACCCAUGUCGGUGGGAGAAGGGCCGUACGGCG [salish99_ExNG02_R04_014] (Eterna round: R96, puzzle: Exclusion NG 2) | – | – | – | 26.9 | 50.7 | 29.3 |
| UAAGGUCGUCAAUACCUAACCACAUGAGGAUCACCCAUGUCUGAGGAUAUGAAGGCGGCCCGCCAUUAGAAGGCAGCAAGGGAA [Ustiarmadi] (Eterna round: R96, puzzle: Exclusion NG 3) | – | – | – | 13.2 | 14.4 | 7.89 |
